Test results published in paper PMC4161475, “EhCoactosin Stabilizes Actin Filaments in the Protist Parasite Entamoeba histolytica” (PLoS Pathogens, 2014).

Target: G-actin (rabbit skeletal muscle actin, monomeric) (rabbit, UniProt P68135 1-377)
Test: ELISA; solid-phase assay: wells coated with 5 µM G-actin in PBS, 5 µM protein added, detected with anti-EhCoactosin antibody; in the presence of Ca2+ (2 mM) or EGTA (5 mM)
Settings: both partners purified

B1: EhCoactosin with the N-terminal seven amino acid residues deleted (domain or fragment)
chain: EVAGPVAEVIDDKNEEVEFVVFGVQTQPNKLVVDAKGKGGLEEVKAALKEDALQFAYYRTISGDEESKRVKFVFISWAGEGIKKPKLRAVMSILKGDVKNVINNFHIELHATSLDDLVEDEIAAKIKKAGGADYSFNTTSN
notes: Coactosin of Entamoeba histolytica, NCBI XP_650926.1, 7 residues deleted from the N terminus; The tag is told for the EhCoactosin gene in pET28b; also called EhCoΔN; N-terminal truncation mutant; source: E. coli BL21 (DE3), purified (Nickel-NTA, Superdex 75 gel filtration)
fold increase in binding against WT: 2 fold

B2: EhCoactosin, full-length wild type (natural protein)
chain: MSGFDLSEVAGPVAEVIDDKNEEVEFVVFGVQTQPNKLVVDAKGKGGLEEVKAALKEDALQFAYYRTISGDEESKRVKFVFISWAGEGIKKPKLRAVMSILKGDVKNVINNFHIELHATSLDDLVEDEIAAKIKKAGGADYSFNTTSN
notes: Cloned in pET28b between NcoI and XhoI; also called EhCoWT; WT EhCoactosin; source: E. coli BL21 (DE3), purified (Nickel-NTA, Superdex 75 gel filtration)
fold of the level of binding of EhCaBP1: 2 fold
